Publication PMC4658561, “A mechanism of glucose tolerance and stimulation of GH1 β-glucosidases” (Scientific Reports, 2015)
Residue numbers refer to the chain shown, from its start.

Key:
[1] = system: T1, O=[N+]([O-])c1ccc(O[C@@H]2O[C@H](CO)[C@@H](O)[C@H](O)[C@H]2O)cc1; assay: purified protein; type: biochemical, uncultured bacterium; conditions: no glucose, 50 mM Na2HPO4-citric acid buffer pH 7.0, optimal conditions
T1 construct: pET-22b(+) NdeI/XhoI, C-terminal His6 (kept), E. coli BL21(DE3), Ni-NTA purified; GH1, EC 3.2.1.21; residues V227, H228, N301, V302

Bgl1A = molecular target: T2, Bgl1A (uncultured bacterium, UniProt D5KX75); assay: relative activity on pNPG versus glucose concentration; type: biochemical; conditions: pH […], stimulation at low concentration, transglycosylation acceptor
T2 construct: pET-22b(+) NdeI/XhoI, C-terminal His6 (kept), E. coli BL21(DE3), Ni-NTA purified; GH1, EC 3.2.1.21; residues T228, Q301, F302
T2 sequence (D5KX75 1-442): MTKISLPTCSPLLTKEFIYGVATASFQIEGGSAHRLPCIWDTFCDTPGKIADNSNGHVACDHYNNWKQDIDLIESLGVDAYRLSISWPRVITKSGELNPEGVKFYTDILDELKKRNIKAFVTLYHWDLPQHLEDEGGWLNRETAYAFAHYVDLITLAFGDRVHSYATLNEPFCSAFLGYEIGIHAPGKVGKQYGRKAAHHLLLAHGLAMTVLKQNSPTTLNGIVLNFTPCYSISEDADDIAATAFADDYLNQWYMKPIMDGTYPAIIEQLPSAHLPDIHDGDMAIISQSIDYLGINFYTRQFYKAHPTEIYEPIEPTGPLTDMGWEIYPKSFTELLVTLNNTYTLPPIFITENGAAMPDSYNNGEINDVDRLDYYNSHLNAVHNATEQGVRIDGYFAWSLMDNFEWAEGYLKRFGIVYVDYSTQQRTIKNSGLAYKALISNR

Bgl1B [2] = molecular target: T3, Bgl1B (uncultured bacterium, UniProt D0VEC8, H228T); assay: as above; type: biochemical; conditions: pH […], stimulation at low concentration, transglycosylation acceptor
T3 construct: pET-22b(+) NdeI/XhoI, C-terminal His6 (kept), E. coli BL21(DE3), Ni-NTA purified; GH1, EC 3.2.1.21; residues V227, H228, N301, V302
T3 sequence (D0VEC8 1-449 H228T): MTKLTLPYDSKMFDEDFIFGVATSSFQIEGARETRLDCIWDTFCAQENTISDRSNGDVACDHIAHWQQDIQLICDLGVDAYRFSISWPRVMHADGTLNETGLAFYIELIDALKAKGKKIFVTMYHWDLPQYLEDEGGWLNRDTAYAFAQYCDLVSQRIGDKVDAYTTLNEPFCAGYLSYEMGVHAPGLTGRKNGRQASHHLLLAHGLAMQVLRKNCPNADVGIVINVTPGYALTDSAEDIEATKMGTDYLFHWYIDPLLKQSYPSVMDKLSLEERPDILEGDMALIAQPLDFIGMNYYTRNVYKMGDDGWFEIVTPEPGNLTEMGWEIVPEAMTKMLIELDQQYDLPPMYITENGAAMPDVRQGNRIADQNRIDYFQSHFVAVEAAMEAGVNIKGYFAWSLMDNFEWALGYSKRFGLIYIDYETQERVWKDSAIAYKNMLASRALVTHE

Bgl1B [3] = molecular target: T4, Bgl1B (uncultured bacterium, UniProt D0VEC8); assay: as above; type: biochemical; conditions: pH […], product inhibition, competitive
T4 construct: pET-22b(+) NdeI/XhoI, C-terminal His6 (kept), E. coli BL21(DE3), Ni-NTA purified; GH1, EC 3.2.1.21; residues V227, H228, N301, V302
T4 sequence (D0VEC8 1-449): T3 sequence (D0VEC8 1-449 H228T) with T228H

[4] = system: T5, O=[N+]([O-])c1ccc(O[C@@H]2O[C@H](CO)[C@@H](O)[C@H](O)[C@H]2O)cc1; assay: purified protein; type: biochemical, uncultured bacterium; conditions: no glucose, 50 mM Na2HPO4-citric acid buffer pH 7.0, optimal conditions
T5 construct: pET-22b(+) NdeI/XhoI, C-terminal His6 (kept), E. coli BL21(DE3), Ni-NTA purified; GH1, EC 3.2.1.21; residues T228, Q301, F302

Molecule: Bgl1B (uncultured bacterium; N301Q/V302F)
- Km [1]: 830 ± 70 µM
- Vmax [1]: 8.84 µM/min
- kcat/Km [1]: 2860 M⁻¹ s⁻¹

Molecule: Bgl1B (uncultured bacterium)
- Km [1]: 270 ± 20 µM
- Vmax [1]: 12.6 µM/min
- kcat/Km [1]: 74700 M⁻¹ s⁻¹

Molecule: OC[C@H]1OC(O)[C@H](O)[C@@H](O)[C@@H]1O (stereo partly drawn) [glucose]
- relative activity (Bgl1A): Bgl1A displayed high glucose tolerance, and was stimulated by low concentrations of glucose
- relative activity (Bgl1B [2]): only B:H228T exhibited glucose stimulation, essentially distinctive from wild-type Bgl1B
- relative activity (Bgl1B [3]): the activity of Bgl1B was persistently inhibited by glucose

Molecule: Bgl1A (uncultured bacterium)
- Km [4]: 690 ± 70 µM
- Vmax [4]: 2.7 µM/min
- kcat/Km [4]: 35500 M⁻¹ s⁻¹

Molecule: Bgl1B (uncultured bacterium; H228T)
- Km [1]: 360 ± 30 µM
- Vmax [1]: 10.1 µM/min
- kcat/Km [1]: 24200 M⁻¹ s⁻¹
